Laboratory results from PMC3805332 (ACS Chemical Biology, 2013).
Values joined by “and” are separate entries in the source; they are usually repeats but may differ in a detail not shown here. Identical values can stand only once.

What was measured:
[1] = molecular target: M. tuberculosis maltokinase Pep2 (M. tuberculosis H37Rv, UniProt O07177 1-455); test: SEC; conditions: both partners purified
AUC = molecular target: the molecule itself; test: AUC
[2] = molecular target: T1, M. smegmatis TreS (recombinant) (M. smegmatis, UniProt A0R6E0 1-593); test: SEC; M. smegmatis Pep2-K145A with M. smegmatis TreS (Figure S6B); conditions not given; conditions: both partners purified
T1 sequence (looked up): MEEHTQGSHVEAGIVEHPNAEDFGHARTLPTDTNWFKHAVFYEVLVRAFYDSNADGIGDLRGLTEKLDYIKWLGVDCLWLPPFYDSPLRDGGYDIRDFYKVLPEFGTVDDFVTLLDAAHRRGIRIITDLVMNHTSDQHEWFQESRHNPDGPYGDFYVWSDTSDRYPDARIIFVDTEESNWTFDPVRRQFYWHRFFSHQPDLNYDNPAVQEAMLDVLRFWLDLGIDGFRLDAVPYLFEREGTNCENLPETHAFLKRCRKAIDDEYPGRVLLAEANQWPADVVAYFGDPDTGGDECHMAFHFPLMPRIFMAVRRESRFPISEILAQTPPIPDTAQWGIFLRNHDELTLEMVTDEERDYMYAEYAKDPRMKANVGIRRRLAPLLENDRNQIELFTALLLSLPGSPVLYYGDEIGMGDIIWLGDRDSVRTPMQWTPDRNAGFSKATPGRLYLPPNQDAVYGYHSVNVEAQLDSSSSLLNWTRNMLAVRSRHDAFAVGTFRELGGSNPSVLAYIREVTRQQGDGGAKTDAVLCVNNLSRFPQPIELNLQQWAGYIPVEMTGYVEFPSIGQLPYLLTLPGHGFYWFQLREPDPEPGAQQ

B1: M. tuberculosis trehalose synthase TreS (enzyme)
chain: MNEAEHSVEHPPVQGSHVEGGVVEHPDAKDFGSAAALPADPTWFKHAVFYEVLVRAFFDASADGSGDLRGLIDRLDYLQWLGIDCIWLPPFYDSPLRDGGYDIRDFYKVLPEFGTVDDFVALVDAAHRRGIRIITDLVMNHTSESHPWFQESRRDPDGPYGDYYVWSDTSERYTDARIIFVDTEESNWSFDPVRRQFYWHRFFSHQPDLNYDNPAVQEAMIDVIRFWLGLGIDGFRLDAVPYLFEREGTNCENLPETHAFLKRVRKVVDDEFPGRVLLAEANQWPGDVVEYFGDPNTGGDECHMAFHFPLMPRIFMAVRRESRFPISEIIAQTPPIPDMAQWGIFLRNHDELTLEMVTDEERDYMYAEYAKDPRMKANVGIRRRLAPLLDNDRNQIELFTALLLSLPGSPVLYYGDEIGMGDVIWLGDRDGVRIPMQWTPDRNAGFSTANPGRLYLPPSQDPVYGYQAVNVEAQRDTSTSLLNFTRTMLAVRRRHPAFAVGAFQELGGSNPSVLAYVRQVAGDDGDTVLCVNNLSRFPQPIELDLQQWTNYTPVELTGHVEFPRIGQVPYLLTLPGHGFYWFQLTTHEVGAPPTCGGERRL
binding result [1]: binds
stoichiometry N (AUC): 4 and 8

B2: M. smegmatis Pep2-K145A (enzyme)
chain: not shown
binding result [2]: binds
